Measurements reported in patent EP4772538A1 (Beijing Wisdomab Biotechnology Co., Ltd, dated 2026).

B1: TCRm x CD3 bispecific antibody 2N18D10-h16+IMCR (bispecific antibody)
chain 1: QVQLVESGGGLVKPGGSLRLSCAVSGFTFDDSDMGWYRQAPGNECELVSTITTDGSTYYADSVKGRFTISQDNAKTSAYLQMNSLRAEDTAVYYCAADLPILRPTPCGDSVLYNYWGQGTTVTVSSGGGGSGGGGSGGGGSQVQLVESGGGLVKPGGSLRLSCAVSGFTFDDSDMGWYRQAPGNECELVSTITTDGSTYYADSVKGRFTISQDNAKTSAYLQMNSLRAEDTAVYYCAADLPILRPTPCGDSVLYNYWGQGTTVTVSSASERKSSVECPPCPAPEFEGGPSVFLFPPKPKDTLMISRTPEVTCVVVDVSQEDPEVQFNWYVDGVEVHNAKTKPREEQYNSTYRVVSVLTVLHQDWLNGKEYKCKVSNKALPASIEKTISKAKGQPREPQVCTLPPSQEEMTKNQVSLSCAVKGFYPSDIAVEWESNGQPENNYKTTPPVLDSDGSFFLVSKLTVDKSRWQEGNVFSCSVMHEALHNHYTQKSLSLSPGK
chain 2: not shown
notes: also called 22N18D10-h16+IMCR
B2: anti-HLA-A02/MAGE-A4 complex and anti-CD3 control bispecific antibody 057G03 (bispecific antibody)
heavy 1: AQLVESGGGLVQPGGSLRLSCAASAYFSFKAMSWVRQAPGKGLEWVGSISPSGGSTYYNDNVLGRFTISRDNSKNTLYLQMNSLRAEDTAVYYCAKDVGFFDEWGQGTLVTVSSASTKGPSVFPLAPSSKSTSGGTAALGCLVEDYFPEPVTVSWNSGALTSGVHTFPAVLQSSGLYSLSSVVTVPSSSLGTQTYICNVNHKPSNTKVDEKVEPKSCDGGGGSGGGGSDIQMTQSPSSLSASVGDRVTITCRASQDIRNYLNWYQQKPGKAPKLLIYYTSRLESGVPSRFSGSGSGTDYTLTISSLQPEDFATYYCQQGNTLPWTFGQGTKVEIKSSASTKGPSVFPLAPSSKSTSGGTAALGCLVKDYFPEPVTVSWNSGALTSGVHTFPAVLQSSGLYSLSSVVTVPSSSLGTQTYICNVNHKPSNTKVDKRVERKSCVECPPCPAPEFEGGPSVFLFPPKPKDTLMISRTPEVTCVVVDVSHEDPEVKFNWYVDGVEVHNAKTKPREEQYNSTYRVVSVLTVLHQDWLNGKEYKCKVSNKALPASIEKTISKAKGQPREPQVYTLPPCREEMTKNQVSLWCLVKGFYPSDIAVEWESNGQPENNYKTTPPVLDSDGSFFLYSKLTVDKSRWQQGNVFSCSVMHEALHNHYTQKSLSLSPGK
heavy 2: AQLVESGGGLVQPGGSLRLSCAASAYFSFKAMSWVRQAPGKGLEWVGSISPSGGSTYYNDNVLGRFTISRDNSKNTLYLQMNSLRAEDTAVYYCAKDVGFFDEWGQGTLVTVSSASTKGPSVFPLAPSSKSTSGGTAALGCLVEDYFPEPVTVSWNSGALTSGVHTFPAVLQSSGLYSLSSVVTVPSSSLGTQTYICNVNHKPSNTKVDEKVERKSCVECPPCPAPEFEGGPSVFLFPPKPKDTLMISRTPEVTCVVVDVSQEDPEVQFNWYVDGVEVHNAKTKPREEQYNSTYRVVSVLTVLHQDWLNGKEYKCKVSNKALPASIEKTISKAKGQPREPQVCTLPPSQEEMTKNQVSLSCAVKGFYPSDIAVEWESNGQPENNYKTTPPVLDSDGSFFLVSKLTVDKSRWQEGNVFSCSVMHEALHNHYTQKSLSLSPGK
light: DIQMTQSPSSLSASVGDRVTITCRASQSISSYLAWYQQKPGKAPKLLIYDASIRDIGVPSRFSGSGSGTDFTLTISSLQPEDFATYYCQQYSSYPYTFGQGTKLEIKRTVAAPSVFIFPPSDRKLKSGTASVVCLLNNFYPREAKVQWKVDNALQSGNSQESVTEQDSKDSTYSLSSTLTLSKADYEKHKVYACEVTHQGLSSPVTKSFNRGEC
chain: EVQLVESGGGLVQPGGSLRLSCAASGYSFTGYTMNWVRQAPGKGLEWVALINPYKGVSTYNQKFKDRFTISVDKSKNTAYLQMNSLRAEDTAVYYCARSGYYGDSDWYFDVWGQGTLVTVSSASVAAPSVFIFPPSDEQLKSGTASVVCLLNNFYPREAKVQWKVDNALQSGNSQESVTEQDSKDSTYSLSSTLTLSKADYEKHKVYACEVTHQGLSSPVTKSFNRGEC
notes: also called 057D03 (variable regions)
B3: TCRm x CD3 bispecific antibody 2N18D10+IMCR (bispecific antibody)
chain 1: EVQLVESGGGSVQTGETLRLSCTVSGFTFDDSDMGWYRQAPGNECELVSTITTDGSTYYADSVKGRFTISQDNAKTTAYLQMDSLKPEDTAVYYCAADLPILRPTPCGDSVLYNYWGQGTQVTVSSGGGGSGGGGSGGGGSEVQLVESGGGSVQTGETLRLSCTVSGFTFDDSDMGWYRQAPGNECELVSTITTDGSTYYADSVKGRFTISQDNAKTTAYLQMDSLKPEDTAVYYCAADLPILRPTPCGDSVLYNYWGQGTQVTVSSASERKSSVECPPCPAPEFEGGPSVFLFPPKPKDTLMISRTPEVTCVVVDVSQEDPEVQFNWYVDGVEVHNAKTKPREEQYNSTYRVVSVLTVLHQDWLNGKEYKCKVSNKALPASIEKTISKAKGQPREPQVCTLPPSQEEMTKNQVSLSCAVKGFYPSDIAVEWESNGQPENNYKTTPPVLDSDGSFFLVSKLTVDKSRWQEGNVFSCSVMHEALHNHYTQKSLSLSPGK
chain 2: not shown
B4: anti-HLA-A02/MAGE-A4 complex TCRm antibody N18D10-Fc (Fc fusion)
chain: EVQLVESGGGSVQTGETLRLSCTVSGFTFDDSDMGWYRQAPGNECELVSTITTDGSTYYADSVKGRFTISQDNAKTTAYLQMDSLKPEDTAVYYCAADLPILRPTPCGDSVLYNYWGQGTQVTVSS
notes: Camel VHH fused to the Fc region of human IgG1; not shown: Fc region of human IgG1
B5: humanized anti-HLA-A02/MAGE-A4 complex TCRm antibody N18D10-h16-Fc (Fc fusion)
chain: QVQLVESGGGLVKPGGSLRLSCAVSGFTFDDSDMGWYRQAPGNECELVSTITTDGSTYYADSVKGRFTISQDNAKTSAYLQMNSLRAEDTAVYYCAADLPILRPTPCGDSVLYNYWGQGTTVTVSS
notes: Humanized VHH fused to the Fc region of human IgG1; not shown: Fc region of human IgG1

Experiments:
[1] = target: T1, HLA-A02/MAGE-A4 complex on the cell surface (MAGE-A4230-239 (…) presented by HLA-A02) (human); experiment: cell-based or functional assay
[2] = target: T2, HLA-A02 complex of … (MHC-P1-His), disulfide trap single-chain trimer (human); experiment: SPR, Biacore T200, method of Section 3.1; affinity for MHC-P1
T2 construct: also called recombinant protein MHC-P1

[3] = target: T1, HLA-A02/MAGE-A4 complex on the cell …; experiment: cell-based or functional assay; remark: listed apart in the source
[4] = target: T1, HLA-A02/MAGE-A4 complex on the cell …; experiment: cell-based or functional assay; remark: listed apart in the source
[5] = target: T1, HLA-A02/MAGE-A4 complex on the cell …; experiment: cell-based or functional assay; remark: listed apart in the source
[6] = target: T2, HLA-A02 complex of … (MHC-P1-His), …; experiment: SPR, Biacore T200; antibody captured by anti-human IgG (Fc), MHC-P1-His injected, 25°C, 1:1 model
[7] = target: T3, HLA-A02 complex of alanine-scanning mutant peptide R6A of MAGE-A4230-239 on pulsed T2 cells (human); experiment: flow cytometry on peptide-pulsed T2 cells, N18D10-Fc at 10 nM, anti-human IgG-FITC
T3 construct: whole, on cells

[8] = target: T4, HLA-A02 complex of alanine-scanning mutant peptide H8A of MAGE-A4230-239 on pulsed T2 cells (human); experiment: as above
T4 construct: whole, on cells

[9] = target: T5, HLA-A02 complex of alanine-scanning mutant peptide D4A of MAGE-A4230-239 on pulsed T2 cells (human); experiment: as above
T5 construct: whole, on cells

[10] = target: T6, HLA-A02 complex of alanine-scanning mutant peptide V10A of MAGE-A4230-239 on pulsed T2 cells (human); experiment: as above
T6 construct: whole, on cells

[11] = target: T7, HLA-A02 complex of alanine-scanning mutant peptide G5A of MAGE-A4230-239 on pulsed T2 cells (human); experiment: as above
T7 construct: whole, on cells

[12] = target: T1, HLA-A02/MAGE-A4 complex on the cell …; experiment: as above
[13] = target: T8, HLA-A02 complex of alanine-scanning mutant peptide Y3A of MAGE-A4230-239 on pulsed T2 cells (human); experiment: as above
T8 construct: whole, on cells

[14] = target: T9, HLA-A02 complex of alanine-scanning mutant peptide T9A of MAGE-A4230-239 on pulsed T2 cells (human); experiment: as above
T9 construct: whole, on cells

[15] = target: T10, HLA-A02 complex of alanine-scanning mutant peptide E7A of MAGE-A4230-239 on pulsed T2 cells (human); experiment: as above
T10 construct: whole, on cells

[16] = target: T11, HLA-A02 complex of alanine-scanning mutant peptide V2A of MAGE-A4230-239 on pulsed T2 cells (human); experiment: as above
T11 construct: whole, on cells

[17] = target: T2, HLA-A02 complex of … (MHC-P1-His), …; experiment: SPR, Biacore T200, method of Section 3.1; antibody captured, MHC-P1-His injected

Binder | EC50 of killing of A375 cells (HLA-A02+/MAGE-A4+) via PBMCs (LDH release) [1] | Kd [2] | koff [2] | kon [2] | EC50 of killing of antigen peptide-pulsed T2 cells via PBMCs (LDH release) [3] | EC50 of activation of Jurkat-Dual cells via HLA-A02+/MAGE-A4+ tumor cells A375 (QUANTI-Luc) [4] | EC50 of activation of Jurkat-Dual cells via antigen peptide-pulsed T2 cells (QUANTI-Luc) [5] | further results
B1 | 0.0761 nM | 0.43 nM | 7.83e-05 s⁻¹ | 182000 M⁻¹ s⁻¹ | 0.00256 nM | 0.145 nM | 0.0143 nM | –
B2 | 5.52 nM | 33 nM | 0.0167 s⁻¹ | 507000 M⁻¹ s⁻¹ | 0.00453 nM | 0.749 nM | 0.175 nM | –
B3 | 0.0498 nM | 0.388 nM | 7.61e-05 s⁻¹ | 196000 M⁻¹ s⁻¹ | 0.00236 nM | 0.189 nM | 0.0145 nM | –
B4 | – | – | – | – | – | – | – | Kd [6]: 0.388 nM; koff [6]: 7.18e-05 s⁻¹; kon [6]: 185000 M⁻¹ s⁻¹; binding relative to the original peptide [7]: -0.56%; binding relative to the original peptide [8]: -0.13%; binding relative to the original peptide [9]: 18.4%; binding relative to the original peptide [10]: 0.35%; binding relative to the original peptide [11]: -1.02%; binding relative to the original peptide [12]: 100%; binding relative to the original peptide [13]: -0.12%; binding relative to the original peptide [14]: 33.6%; binding relative to the original peptide [15]: 27.4%; binding relative to the original peptide [16]: 41.1%
B5 | – | – | – | – | – | – | – | Kd [17]: 0.467 nM; koff [17]: 7.61e-05 s⁻¹; kon [17]: 163000 M⁻¹ s⁻¹
